Assay results taken from paper PMC3216659 (Molecular Biology of the Cell, 2011).

B1: MBP–Duo1 complex (complex, S. cerevisiae)
chain 1: MSEDKAKLGTTRSATEYRLSIGSAPTSRRSSMGESSSLMKFADQEGLTSSVGEYNENTIQQLLLPKIRELSDSIITLDSNFTRLNFIHESLADLNESLGSLLYGIMSNSWCVEFSQAPHDIQDDLIAIKQLKSLEDEKNNLVMELSNMERGIKRKKDEQGENDLAKASQNKQFNQPLFPSSQVRKYRSYDNRDKRKPSKIGNNLQVENEEDYEDDTSSEASFVLNPTNIGMSKSSQGHVTKTTRLNNNTNSKLRRKSILHTIRNSIASGADLPIENDNVVNLGDLHPNNRISLGSGAARVVNGPVTKNRNSMFSGRAERKPTESRHSVAKKTEKKINTRPPFR
chain 2: MSEQSQLDDSTIDKLIPQIFNEMRSNLNNTTNKFPKSTGGGASDNISANSNSIRSFNSITTQSLLKESESLDKITAMIKNVTAALKNNLPVYVNQVHEVCKSTNSILDSWINIHSQAGYIHKLMSDQTYLKLINDRLHNENVNTNDEDGSTLHNVIALKKKEILDLRQKLENRKGEKDAAPAKPPNQGLNPRYGVQSGRRPVPSAGISNNGRVRKTHVPASKRPSGIPRVTNRWTKPTASSSRKMFR
chain 3: MDSASKEETLEKLDQEITVNLQKIDSNLSFCFHKITQDIIPHVATYSEICERIMDSTEWLGTMFQETGLVNLQANAAAPVGNAPVKSLVSNNVGIFPTSAEEASRQSQTDNGPNEADSAVHVNRDVHSMFNNDSIDDFHTANITSTGQILKLPDSSDEDTGSEAVPSREQTDLTGEGHGGADDEQDESTIQRQSRKRKISLLLQQQYGSSSSMVPSPIVPNKMRKQLAHEEHINNDGDNDDENSNNIESSPLKQGHHHPKGQADDNNEGPDEEESTKEVPKPGTIIHFSTNR
chain 4: MGESLDRCIDDINRAVDSMSTLYFKPPGIFHNAILQGASNKASIRKDITRLIKDCNHDEAYLLFKVNPEKQSVSRRDGKEGVFDYVIKRDTDMKRNRRLGRPGEKPIIHVPKEVYLNKDRLDLNNKRRRTATTSGGGLNGFIFDTDLIGSSVISNSSSGTFKALSAVFKDDPQIQRLLYALENGSVLMEEESNNQRRKTIFVEDFPTDLILKVMAEVTDLWPLTEFKQDYDQLYHNYEQLSSKLRFIKKEVLLQDDRLKTMSQYHPSSSHDVAKIIRKEKDEIRRLEMEIANLQE
chain 5: MTDALEQSVLALEGTVSVLKDSVESLKCANEPSTNLASTMLQTKRVFRLVPEYDVERSKLDLIEEVEPLVRTLGDKLRKSMGRMQRELDTLQQTYELNDLRLKKNISMDDDDALNSPDMGQEYEGRDADDVVMMASSTNEELEELKKLKEKKKQLENKLEILKQK
chain 6: MMASTSNDEEKLISTTDKYFIEQRNIVLQEINETMNSILNGLNGLNISLESSIAVGREFQSVSDLWKTLYDGLESLSDEAPIDEQPTLSQSKTK
chain 7: MDSIDEQIAIKRKELQSLQKITSLTDGLKIQLTELNEQIKEMGMNADSVAQLMNNWDSIINNISQASLGLLQYAEGDYEIGPWKDSKKKESEQSNETGLEAQENDKNDEDNDEDEDLVPLPETMVRIRVDGNE
chain 8: MEHNLSPLQQEVLDKYKQLSLDLKALDETIKELNYSQHRQQHSQQETVSPDEILQEMRDIEVKIGLVGTLLKGSVYSLILQRKQEQESLGSNSK
chain 9: MENPHEQVQANILSRIIGNVKRLNESVAILNQELVTINNRNKNLEIMGAICDNYHSSVQFNLEATNNKKPPL
chain 10: MNANKQRQYNQLAHELRELQTNLQETTKQLDIMSKQCNENLVGQLGKVHGSWLIGSYIYYMEQMLGKTQ
B2: MBP–Spc34 complex (complex, S. cerevisiae)
chain 1: MSEDKAKLGTTRSATEYRLSIGSAPTSRRSSMGESSSLMKFADQEGLTSSVGEYNENTIQQLLLPKIRELSDSIITLDSNFTRLNFIHESLADLNESLGSLLYGIMSNSWCVEFSQAPHDIQDDLIAIKQLKSLEDEKNNLVMELSNMERGIKRKKDEQGENDLAKASQNKQFNQPLFPSSQVRKYRSYDNRDKRKPSKIGNNLQVENEEDYEDDTSSEASFVLNPTNIGMSKSSQGHVTKTTRLNNNTNSKLRRKSILHTIRNSIASGADLPIENDNVVNLGDLHPNNRISLGSGAARVVNGPVTKNRNSMFSGRAERKPTESRHSVAKKTEKKINTRPPFR
chain 2: MSEQSQLDDSTIDKLIPQIFNEMRSNLNNTTNKFPKSTGGGASDNISANSNSIRSFNSITTQSLLKESESLDKITAMIKNVTAALKNNLPVYVNQVHEVCKSTNSILDSWINIHSQAGYIHKLMSDQTYLKLINDRLHNENVNTNDEDGSTLHNVIALKKKEILDLRQKLENRKGEKDAAPAKPPNQGLNPRYGVQSGRRPVPSAGISNNGRVRKTHVPASKRPSGIPRVTNRWTKPTASSSRKMFR
chain 3: MDSASKEETLEKLDQEITVNLQKIDSNLSFCFHKITQDIIPHVATYSEICERIMDSTEWLGTMFQETGLVNLQANAAAPVGNAPVKSLVSNNVGIFPTSAEEASRQSQTDNGPNEADSAVHVNRDVHSMFNNDSIDDFHTANITSTGQILKLPDSSDEDTGSEAVPSREQTDLTGEGHGGADDEQDESTIQRQSRKRKISLLLQQQYGSSSSMVPSPIVPNKMRKQLAHEEHINNDGDNDDENSNNIESSPLKQGHHHPKGQADDNNEGPDEEESTKEVPKPGTIIHFSTNR
chain 4: MGESLDRCIDDINRAVDSMSTLYFKPPGIFHNAILQGASNKASIRKDITRLIKDCNHDEAYLLFKVNPEKQSVSRRDGKEGVFDYVIKRDTDMKRNRRLGRPGEKPIIHVPKEVYLNKDRLDLNNKRRRTATTSGGGLNGFIFDTDLIGSSVISNSSSGTFKALSAVFKDDPQIQRLLYALENGSVLMEEESNNQRRKTIFVEDFPTDLILKVMAEVTDLWPLTEFKQDYDQLYHNYEQLSSKLRFIKKEVLLQDDRLKTMSQYHPSSSHDVAKIIRKEKDEIRRLEMEIANLQE
chain 5: MTDALEQSVLALEGTVSVLKDSVESLKCANEPSTNLASTMLQTKRVFRLVPEYDVERSKLDLIEEVEPLVRTLGDKLRKSMGRMQRELDTLQQTYELNDLRLKKNISMDDDDALNSPDMGQEYEGRDADDVVMMASSTNEELEELKKLKEKKKQLENKLEILKQK
chain 6: MMASTSNDEEKLISTTDKYFIEQRNIVLQEINETMNSILNGLNGLNISLESSIAVGREFQSVSDLWKTLYDGLESLSDEAPIDEQPTLSQSKTK
chain 7: MDSIDEQIAIKRKELQSLQKITSLTDGLKIQLTELNEQIKEMGMNADSVAQLMNNWDSIINNISQASLGLLQYAEGDYEIGPWKDSKKKESEQSNETGLEAQENDKNDEDNDEDEDLVPLPETMVRIRVDGNE
chain 8: MEHNLSPLQQEVLDKYKQLSLDLKALDETIKELNYSQHRQQHSQQETVSPDEILQEMRDIEVKIGLVGTLLKGSVYSLILQRKQEQESLGSNSK
chain 9: MENPHEQVQANILSRIIGNVKRLNESVAILNQELVTINNRNKNLEIMGAICDNYHSSVQFNLEATNNKKPPL
chain 10: MNANKQRQYNQLAHELRELQTNLQETTKQLDIMSKQCNENLVGQLGKVHGSWLIGSYIYYMEQMLGKTQ
B3: MBP–Spc19 complex (complex, S. cerevisiae)
chain 1: MSEDKAKLGTTRSATEYRLSIGSAPTSRRSSMGESSSLMKFADQEGLTSSVGEYNENTIQQLLLPKIRELSDSIITLDSNFTRLNFIHESLADLNESLGSLLYGIMSNSWCVEFSQAPHDIQDDLIAIKQLKSLEDEKNNLVMELSNMERGIKRKKDEQGENDLAKASQNKQFNQPLFPSSQVRKYRSYDNRDKRKPSKIGNNLQVENEEDYEDDTSSEASFVLNPTNIGMSKSSQGHVTKTTRLNNNTNSKLRRKSILHTIRNSIASGADLPIENDNVVNLGDLHPNNRISLGSGAARVVNGPVTKNRNSMFSGRAERKPTESRHSVAKKTEKKINTRPPFR
chain 2: MSEQSQLDDSTIDKLIPQIFNEMRSNLNNTTNKFPKSTGGGASDNISANSNSIRSFNSITTQSLLKESESLDKITAMIKNVTAALKNNLPVYVNQVHEVCKSTNSILDSWINIHSQAGYIHKLMSDQTYLKLINDRLHNENVNTNDEDGSTLHNVIALKKKEILDLRQKLENRKGEKDAAPAKPPNQGLNPRYGVQSGRRPVPSAGISNNGRVRKTHVPASKRPSGIPRVTNRWTKPTASSSRKMFR
chain 3: MDSASKEETLEKLDQEITVNLQKIDSNLSFCFHKITQDIIPHVATYSEICERIMDSTEWLGTMFQETGLVNLQANAAAPVGNAPVKSLVSNNVGIFPTSAEEASRQSQTDNGPNEADSAVHVNRDVHSMFNNDSIDDFHTANITSTGQILKLPDSSDEDTGSEAVPSREQTDLTGEGHGGADDEQDESTIQRQSRKRKISLLLQQQYGSSSSMVPSPIVPNKMRKQLAHEEHINNDGDNDDENSNNIESSPLKQGHHHPKGQADDNNEGPDEEESTKEVPKPGTIIHFSTNR
chain 4: MGESLDRCIDDINRAVDSMSTLYFKPPGIFHNAILQGASNKASIRKDITRLIKDCNHDEAYLLFKVNPEKQSVSRRDGKEGVFDYVIKRDTDMKRNRRLGRPGEKPIIHVPKEVYLNKDRLDLNNKRRRTATTSGGGLNGFIFDTDLIGSSVISNSSSGTFKALSAVFKDDPQIQRLLYALENGSVLMEEESNNQRRKTIFVEDFPTDLILKVMAEVTDLWPLTEFKQDYDQLYHNYEQLSSKLRFIKKEVLLQDDRLKTMSQYHPSSSHDVAKIIRKEKDEIRRLEMEIANLQE
chain 5: MTDALEQSVLALEGTVSVLKDSVESLKCANEPSTNLASTMLQTKRVFRLVPEYDVERSKLDLIEEVEPLVRTLGDKLRKSMGRMQRELDTLQQTYELNDLRLKKNISMDDDDALNSPDMGQEYEGRDADDVVMMASSTNEELEELKKLKEKKKQLENKLEILKQK
chain 6: MMASTSNDEEKLISTTDKYFIEQRNIVLQEINETMNSILNGLNGLNISLESSIAVGREFQSVSDLWKTLYDGLESLSDEAPIDEQPTLSQSKTK
chain 7: MDSIDEQIAIKRKELQSLQKITSLTDGLKIQLTELNEQIKEMGMNADSVAQLMNNWDSIINNISQASLGLLQYAEGDYEIGPWKDSKKKESEQSNETGLEAQENDKNDEDNDEDEDLVPLPETMVRIRVDGNE
chain 8: MEHNLSPLQQEVLDKYKQLSLDLKALDETIKELNYSQHRQQHSQQETVSPDEILQEMRDIEVKIGLVGTLLKGSVYSLILQRKQEQESLGSNSK
chain 9: MENPHEQVQANILSRIIGNVKRLNESVAILNQELVTINNRNKNLEIMGAICDNYHSSVQFNLEATNNKKPPL
chain 10: MNANKQRQYNQLAHELRELQTNLQETTKQLDIMSKQCNENLVGQLGKVHGSWLIGSYIYYMEQMLGKTQ

Molecular target: the molecule itself
Experiment: negative-stain EM with 2D class averages

Stoichiometry N, 2:
B1
B2
B3
